Reference: publication PMC6171237, “UBN1/2 of HIRA complex is responsible for recognition and deposition of H3.3 at cis-regulatory elements of genes in mouse ES cells” (BMC Biology, 2018)

Target: T1, (H3.3-H4)2 tetramers (UniProt P84243 1-136; P62805 1-103)
T1 construct: Histone H3.3; Histone H4; also called H3.3-H4 tetramer; copies: 2 + 2
Assay: pull-down; GST fusion proteins immobilized on Glutathione Sepharose 4 Fast Flow, histone tetramers added in 20 mM HEPES-HCl pH 7.9, 500 mM NaCl, 1 mM EDTA, 5 mM 2-mercaptoethanol, 0.1% Nonidet P-40, overnight at 4 °C; Coomassie staining
Conditions: both partners purified

Row | binding result | Binder
1 | binds | GST-UBN2 (109–291) (domain or fragment, UBN2, human, residues 109-291, contains the HRD domain; also called UBN2 (aa109-291); GST-UBN2-(aa109-291); source: E. coli, purified by GST tag) PRESASRAEQPPRPPRETVRLELVLKDPTDESCVEFSYPELLLCGEQRKKLIHTEDPFNDEHQERQEVEMLAKKFEMKYGGKPRKHRKDRLQDLIDIGFGYDETDPFIDNSEAYDELVPASLTTKYGGFYINTGTLQFRQASDTEEDDITDNQKHKPPKVPKIKEDDIEMKKRKRKEEGEKEK
2 | binds | GST-UBN1 (1–213) (domain or fragment, source: E. coli, purified by GST tag) MSEPHRVQFTSLPGSLNPAFLKKSRKEEAGAGEQHQDCEPAAAAVRITLTLFEPDHKRCPEFFYPELVKNIRGKVKGLQPGDKKKDLSDPFNDEEKERHKVEALARKFEEKYGGKKRRKDRIQDLIDMGYGYDESDSFIDNSEAYDELVPASLTTKYGGFYINSGTLQFRQASESEDDFIKEKKKKSPKKRKLKEGGEKIKKKKKDDTYDKEK
